In the assay the target is PD-L1 on CHO-PD-L1 cells (Promega blockade system) (UniProt Q9NZQ7).

For 1 substance, EC50 (read off the curve); luciferase fold induction, Promega CHO-PD-L1 / PD-1 Jurkat assay results are on record in US20250129167A1.

PD-L1 on CHO-PD-L1 cells (Promega blockade system), sequence (Q9NZQ7 19-290 limits assumed): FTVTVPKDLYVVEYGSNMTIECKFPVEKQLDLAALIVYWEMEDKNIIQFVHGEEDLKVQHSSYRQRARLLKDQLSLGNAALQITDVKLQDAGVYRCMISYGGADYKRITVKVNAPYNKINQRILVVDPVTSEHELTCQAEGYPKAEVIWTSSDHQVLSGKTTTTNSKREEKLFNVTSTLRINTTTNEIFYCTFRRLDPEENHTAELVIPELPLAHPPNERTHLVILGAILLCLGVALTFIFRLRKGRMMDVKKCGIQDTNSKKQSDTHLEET

Turning to Tecentriq (antibody), the EC50 (read off the curve); luciferase fold induction, Promega CHO-PD-L1 / PD-1 Jurkat assay came to 0.1 nM.
